Assay results from US20250361274A1, “PEPTIDE AND PEPTIDE-CONTAINING AGENT” (PEPTIDREAM INC., priority 2022, published 2025).
Numbered stars: 1 amine (or outer) side, 2 acyl side, 3 side chain; on linkers, the order of the positions; unused ones are H or OH. Bridge positions count the residues as written; N and C are the ends. Square brackets hold non-standard residues; d marks the D form. Side chains are listed from the residue outwards. Ends that are not written are not given here. Peptide text beside a SMILES is read from it. I, II: the chains in the order shown. * marks the point of attachment. ξ: configuration not given here. KCOpipzaa = N6-(4-(carboxymethyl)piperazine-1-carbonyl)-L-lysine, O=C(NCCCC[C@H](N[*:1])C(=O)[*:2])N1CCN(CC(=O)[*:3])CC1; X10 = N=C(N)NCCC[C@H](CC(=O)[C@H](CCCCNC(=O)N1CCN(CC(=O)O)CC1)N[*:2])C(=O)[*:1]; X9 = O=C([C@H](Cc1ccc(-c2cccc(F)c2)cc1)N[*:1])[*:2]; 3Pal(6-Ph) = N[C@@H](Cc1ccc(-c2ccccc2)nc1)C(=O)O; Phe(4-COOH) = N[C@@H](Cc1ccc(C(=O)O)cc1)C(=O)O; NMePhe(4-Me) = CN[C@@H](Cc1ccc(C)cc1)C(=O)O; Piperazinyl(4-CH2COOH) = O=C(O)CN1CCN(*)CC1; Bip = N[C@@H](Cc1ccc(-c2ccccc2)cc1)C(=O)O; Phe(4-Cl) = N[C@@H](Cc1ccc(Cl)cc1)C(=O)O; Phe(4-F) = N[C@@H](Cc1ccc(F)cc1)C(=O)O; Ala(4-THP) = N[C@@H](CC1CCOCC1)C(=O)O; cisHyp = O=C(O)[C@@H]1C[C@H](O)CN1; Hyp = O=C(O)[C@@H]1C[C@@H](O)CN1; NMeF = CN[C@@H](Cc1ccccc1)C(=O)O; 4Pal = N[C@@H](Cc1ccncc1)C(=O)O; Aad = N[C@@H](CCCC(=O)O)C(=O)O; Cha = N[C@@H](CC1CCCCC1)C(=O)O; X5 = O=C(C[*:1])[*:2]; CO = O=C([*:1])[*:2]; ξC = NC(CS)C(=O)O; βAla = NCCC(=O)O

What was measured:
[1] = molecular target: T1, BMP4 (Homo sapiens, UniProt P12644); test: BMP4 signal transduction inhibitory activity: SMAD1 phosphorylation by BMP4 stimulus, AlphaLISA SureFire, A549 cells; type: cell-based; conditions: for aLISA BMP4: A549 cells
T1 sequence (P12644 293-408): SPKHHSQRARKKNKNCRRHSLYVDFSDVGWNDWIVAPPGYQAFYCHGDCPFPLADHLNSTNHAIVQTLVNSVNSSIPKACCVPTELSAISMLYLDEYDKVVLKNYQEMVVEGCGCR

[2] = molecular target: T2, BMP7 (Homo sapiens, UniProt P18075); test: BMP7 signal transduction inhibitory activity: SMAD1 phosphorylation by BMP7 stimulus, A549 cells; type: cell-based; conditions: for aLISA BMP7: A549 cells
T2 sequence (P18075 293-431): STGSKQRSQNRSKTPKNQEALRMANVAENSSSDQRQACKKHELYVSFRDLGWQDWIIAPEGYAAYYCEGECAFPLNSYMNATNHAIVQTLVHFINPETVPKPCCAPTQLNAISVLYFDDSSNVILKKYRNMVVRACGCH
Method in brief: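 Cell line A549; stimulus BMP7 10 nM; endpoint pSMAD1. Peptide doses: three concentrations (1–1,000 nM range) or 8 × 1/3 dilutions from 100/1,000 nM.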

[3] = inhibition of SMAD1 phosphorylation by BMP4 stimulus, AlphaLISA, class by peptide concentration zone
[4] = inhibition of SMAD1 phosphorylation by BMP7 stimulus, AlphaLISA, class by peptide concentration zone

Compound: 85 ({CH2CO}-ERVYVDR[Bip]SYV[Bip]Y[Phe(4-COOH)][Phe(4-COOH)]SC[βAla][dE]-OH; thioether N-17; not fully specified) [compound 85]
- aLISA BMP4 ([1]; inhibition of SMAD1 phosphorylation by BMP4 stimulus, peptides of Synthesis 2, classes A-C, ND): A (showed an inhibitory activity of 50% or more in a zone to which the peptide was added to in an amount of 0.2 nM)
- aLISA BMP7 ([2]; inhibition of SMAD1 phosphorylation by BMP7 stimulus, peptides of Synthesis 2, classes A-D, ND): C (showed less than 50% of inhibitory activity in 10 nM-addition zone and showed 50% or more of inhibitory activity in 100 nM-addition zone)

Compound: 68 ({CH2CO}-E[KCOpipzaa]VYVD[KCOpipzaa][Bip]PYP[Bip][4Pal][Phe(4-COOH)][Phe(4-COOH)]SCG-NH2; thioether N-17; not fully specified) [compound 68]
- aLISA BMP4 [1, 3]: D (showed inhibitory activity of less than 50% in 2 nM-addition zone)
- aLISA BMP7 [2, 4]: ND (the inhibitory activity was less than 30% at the maximum concentration evaluated)

Compound: 344 (FG[NMeF]G[Bip]GDD[Cha]A[NMeF][Cha]HCG-NH2; not fully specified (N-terminus, bridges)) [compound 344]
- aLISA BMP4 (0.2 nM) % inh ([1]; SMAD1 phosphorylation, BMP4 0.2 nM, peptide conc. in assay 0.2, 2, 20 nM): A (showed less than 30% of inhibitory activity in 2 nM-peptide-addition zone and showed 30% or more of inhibitory activity in 20 nM-addition zone)
- aLISA BMP7 (10 nM) % inh ([2]; SMAD1 phosphorylation, BMP7 10 nM, peptide conc. in assay 1, 10, 100 nM): D (showed less than 30% of inhibitory activity in 10 nM-addition zone and showed 30% or more of inhibitory activity in 100 nM-addition zone)

Compound: CC(C)[C@@H]1NC(=O)[C@H](Cc2ccc(C(=O)O)cc2)NC(=O)[C@H](C(C)C)NC(=O)[C@H](CCCNC(=N)N)NC(=O)[C@H](CCC(=O)O)NC(=O)CSCC(C(=O)NCC(N)=O)NC(=O)[C@H](CO)NC(=O)[C@H](Cc2ccc(C(=O)O)cc2)NC(=O)[C@H](Cc2ccc(C(=O)O)cc2)NC(=O)[C@H](Cc2ccc(O)cc2)NC(=O)[C@H](Cc2ccc(-c3cccc(F)c3)cc2)NC(=O)[C@@H]2C[C@@H](O)CN2C(=O)[C@H](Cc2ccc(O)cc2)NC(=O)[C@H](CCCCNC(=O)N2CCN(CC(=O)O)CC2)NC(=O)[C@H](Cc2ccc(-c3ccccc3)nc2)NC(=O)[C@H](CCCNC(=N)N)CC(=O)[C@H](CCCCNC(=O)N2CCN(CC(=O)O)CC2)NC1=O (stereo partly shown) [SEQ ID No. 311, ClAc-E-R-V-F4COO-V-KCOpipzaa-R-3Py6Ph-KCOpipzaa-Y-Hyp-Bph3F-Y-F4COO-F4COO-S-C-G-NH2] (I: [3Pal(6-Ph)]K([CO-Piperazinyl(4-CH2COOH)])Y[Hyp][X9]Y[Phe(4-COOH)][Phe(4-COOH)]S[ξC]G-NH2 / II: ERV[Phe(4-COOH)]V; linker I:10-II:N via X5; linker I:N-II:C via X10)
- aLISA BMP4 ([1]; SMAD1 phosphorylation, peptides of Synthesis 2, peptide 0.02, 0.2, 2 nM): A (showed an inhibitory activity of 50% or more in a zone to which the peptide was added to in an amount of 0.2 nM)
- aLISA BMP7 ([2]; 10 nM BMP7, peptides of Synthesis 2, peptide 1, 10, 100 nM): C (showed less than 50% of inhibitory activity in 10 nM-addition zone and showed 50% or more of inhibitory activity in 100 nM-addition zone)

Compound: 70 ({CH2CO}-ARVYVDK[Bip]PYP[Bip]Y[Phe(4-COOH)][Phe(4-COOH)]SCG-NH2; thioether N-17; not fully specified) [compound 70]
- aLISA BMP4 [1, 3]: A (showed an inhibitory activity of 50% or more in a zone to which the peptide was added to in an amount of 0.2 nM)
- aLISA BMP7 [2, 4]: C (showed less than 50% of inhibitory activity in 10 nM-addition zone and showed 50% or more of inhibitory activity in 100 nM-addition zone)

Compound: Cc1ccc(C[C@H]2C(=O)N[C@@H](CC(C)C)C(=O)N3C[C@@H](O)C[C@H]3C(=O)N[C@H](C(=O)NCCC(=O)N[C@H](CCC(=O)O)C(=O)O)CSCC(=O)N[C@@H](Cc3ccc(F)cc3)C(=O)NCC(=O)N(C)[C@@H](Cc3ccccc3)C(=O)NCC(=O)N[C@@H](Cc3ccc(-c4ccccc4)nc3)C(=O)NCC(=O)N[C@@H](CC(=O)O)C(=O)N[C@@H](CCC(=O)O)C(=O)N[C@@H](CC3CCCCC3)C(=O)N[C@@H](CCCC(=O)O)C(=O)N2C)cc1 [compound 417] ({CH2CO}-[Phe(4-F)]G[NMeF]G[3Pal(6-Ph)]GDE[Cha][Aad][NMePhe(4-Me)]L[cisHyp]C[βAla][dE]-OH; thioether N-14)
- aLISA BMP4 (0.2 nM) % inh ([1]; BMP4 0.2 nM stimulus, peptide conc. in assay 0.2, 2, 20 nM): ND (the inhibitory activity was less than 30% at the maximum concentration evaluated)
- aLISA BMP7 (10 nM) % inh ([2]; BMP7 10 nM stimulus, peptide conc. in assay 1, 10, 100 nM): C (showed less than 30% of inhibitory activity in a zone to which the peptide was added in an amount of 1 nM and showed 30% or more of inhibitory activity in 10 nM-addition zone)

Compound: 146 ({CH2CO}-ERVYVDR[Bip]PY[Ala(4-THP)][Bip]Y[Phe(4-COOH)][Phe(4-COOH)]SCG-NH2; thioether N-17; not fully specified) [compound 146]
- aLISA BMP4 ([1]; inhibition of SMAD1 phosphorylation by BMP4 stimulus, peptides of Synthesis 1, classes D-F, ND): D (showed 50% or more of inhibitory activity in 0.2 nM-addition zone)
- aLISA BMP7 ([2]; inhibition of SMAD1 phosphorylation by BMP7 stimulus, peptides of Synthesis 1, classes E, F, ND): E (showed 50% or more of inhibitory activity in a zone to which the peptide was added in an amount of 10 nM)

Compound: 380 (FG[NMeF]G[Phe(4-Cl)]GDD[Cha]A[NMeF]LHCG-NH2; not fully specified) [compound 380]
- aLISA BMP4 (0.2 nM) % inh ([1]; BMP4 0.2 nM stimulus, peptide conc. in assay 2, 20, 200 nM): B (showed less than 30% of inhibitory activity in 20 nM-addition zone and showed 30% or more of inhibitory activity in 200 nM-addition zone)
- aLISA BMP7 (10 nM) % inh ([2]; BMP7 10 nM stimulus, peptide conc. in assay 10, 30, 90 nM): F (showed less than 30% of inhibitory activity in 10 nM-addition zone and showed 30% or more of inhibitory activity in 30 nM-addition zone)
